This data set can be described thus: label from the status in PepcDB records.
Consider “EKGTTGTGNAALDNIFERKSVRTYLNKGVEKEKIDLMLRAGMSAPSGKDVRPWEFVVVSDRAKLDSMAAALPYAKMLTQARNAIIVCGDSARSFYWYLDCSAAAQNILLAAESMGLGAVWTAAYPYEDRMEVVRKYTHLPENILPLCVIPFGYPATKEQPKQKYDEKKIHYNQY”, for which the protein production result is given as “not failed”. The value for “KNKKVILFAPTFRGNGHRTAHYPFFKINFARLASYCEEHQATVLFKMHPFVRNKLNIPAIYSKYFLDISNYREVNDVLFITDILISDYSSLIYEFSVFKKPMLFYAFDLEDYIYTRDFYEPYETFVPGKIVKIFDELILALENNDFELEKVKPFLNKNFKYKDGKSSERLVKDLFNKFFQ” was “failed”; that for “MIKVRVASRARAAEGIAQLDLVCAEGRDLPAFEAGAHIDLFLGNGLTRQYSLCSDPAERSFYRIAVLRELTSRGGSAYVHEALTEGATLEISPPRNLFALDETAEEHLLFAGGVGVTPILAMAKRLSALGRAFTFHYCARDRSRAAFLNELSTAPFTSAVRLSFDAEPDTRLDLDVALARPKPGRRLYVCGPGGFMTHVIDGALARGWSGDQIRKEHFAAAPLSAGQDQPFELVIASSGQIVTVAADQTAAQALEAAGVFVPVSCEQGVCGTCLTRVIDGQPDHRDAFQTDEERAANDQFTPCCSRARSPRLVLDL” was “failed”.

With “MRGKHIFIITALISILMLAACGQKNSSATVATATDSTITKSDFEKQLKDRYGKDMLYEMIAQDVITKKYKVSDDDVDKEVQKAKSQYGDQFKNVLKNNGLKDEADFKNQIKFKLSMNKAIKQSVTEKDVKDHYKPEIKASHILVSDENEAKEIKKKLDTGASFEELAKQESQDLLSKEKGGDLGYFHSGAMTPEFETAAYKLKIGQISDPVQSPNGYHIIKLTGKKDLKPYDEVKNSIRKNLEEERTADPIFGKKLLQSELKKANIKINDSELEDTFTIVSPQGN”, the protein production result is listed as “failed”. The value for “MISGNTINHKNNMAGLKSLVKDTALYGLSSMVGRFLNYLLVPLYTAVLPAASGGYGVVTNVYAWAGLIMVLLTFGMETGFFRFANKSEEDPVKVYANSLISVGGISLIFAILCLTFLQPVSHLLEYGDHPDFIGMMIIVMALDAFLCIPFAYLRFKKRPIKFVAIKFVSIIANIVLNLFFLLLCPWLHEHFPAWVDWFYNPTYLVGYIFVSNLITTCLQLFCLIPELRGFAYRVDKQLLKRMLIYSFPILIFGLVGILNQTVDKIIYPFLFADRQEGLVQLGIYGAATKIAMVMAMFTQAFRYAYEPFVFGKQKEGDNRRMYAQAMKYFLIFAMFAFLVVMFYLDLLRYMVAPDYWAGLSVVAIVIGAEIFKGIYFNLSFWYKLIDETRWGAYFSIVGCVIIVGMNVMLVPTYGFVASAWASVAGYAVITILSYWIGQKKYPIHYDLKHLGTYVLFTAVLYVIGEWVPIENIVLRLAFRTVLLLIFMAYVVRKDLPLSQIPVINRIIKKK” was “failed”; that for “RAAASPITITVGDRALELSVLRPAAPKGVVVFSHGAGGTAEAYATLLEGWRQAGFLVVAPLHVDSQKHPRKTAYNLRSSFPLRIADVGAAAGWAAAAAPGLPLAYAGHSYGSLMSLMRGGALEGMIPARDPNAKAVLCFSSPGTIQGLMGPATFQTLTTPTMVLTGELDLVPGMVADWRDHLRAVEESPAGEKYAWIGKSVDHGLAHHPDNPAFAEASALSVTFLKAQLLGD” was “failed”. With “MKPRISVIIPTYNREELLRRAIESVLDQTFDDFEILVIDGAKSESTRELVRSFGDGRIRYIPQKGKGIANARNLGVSKARGEFIAFLDDDDRWRRDKLELQLELFKVLPQSYGVVYTAFTYYYLEKDKVLGIKHPRASGDVYKHLLKDNITGTSTIMVKRECFKKVGLFREDFVTCEDWDMWLRMAKVCYFGAIDEPLVDYSIHSGQFSFAKYLEGRYKMIEKHLDIKRNPRVLSYHLLQIGVLKLFSGDKRGVEDLLKAFRLNPTIRGNIWDILSSFVDVRTRIYILKFLGRLLEHHHHHH”, the protein production result is on record as “not failed”. Regarding “MKQKSLNPLSSSSPNYDEMIQENFKPHWIIGIDPNLSGALAVLKFDDKGSCFAQVYDTPQLEVVVQNIRTRSFNEKSMLELIRSLDVPSGTKAFVAKYIHPENAITAYNDGLGCGLWTLLTSSISVIYVTPSTWDKHFNLSIWSLDGGRKLALEMFPSLKLTTKIDDNARANALLIAAYGHATSDTRYYSFSQIK”, the protein production entry is given as “failed”.

On to “MAQLTPLDISFIAGYLLLTLLVGLFFSRRASENVGEFFLSGRKLPWWIAGTGMVATTFAADTPLAVAGFVAKNGIAGNWVWWTFVSGGMLTVFFFARLWRRANILTDLEFIELRYSGKAASFLRGFKAVYFGLFINAVIIGWVNLAMFKIIKIMIPGLDPQLTIVGLVIFTAIYSGMSGLWGVSITDAVQFVIAMAGCIILAVLAVNSPQVTAAGGLKQALPDWMFDFFPSFSSTVNTSATGAYALPFTAFAAMAFVQWWASWYPGAEPGGGGYIAQRMMSAKDEKNSLLATLWFTIAHYCVRPWPWIVVGLASLVMFPNLPAGQKEDGFVHVMNAVLPAGLKGLLIAAFMAAYMSTLSTHLNWGTSYLINDLYKRFIKREAEQNHYVLMSRIVTAVTAIFALYITFYVLETITGAWEFIIQCGAGTGFVLIMRWFWWRLNAWSEITSMVAPIVAYSYINQFTTIVFPESIYIIVLFTITCTLAVTWLTKPTDREKLHAFYRTTRVGGALWKPVADEMPDVKGDTGFPALFADWFFGIVLVYATLFGTGKLIFGEPVAAALYYAAGALAGVMIYRDLSKRNWKTFD”, for which the protein production entry is listed as “failed”. In the case of “MMEQEIWVRVTRAAAKRKASTAMGIDEDRLNKKRVFLGELLNVSNVNLLSNLN” it was “failed”; in that of “MGRGYEVISTEVCPLCKGKGKSKSVDFMKISEKDIDSFLKNGAVCEKCKGKGSIEITRPCEACEGLGKIYTCKVCGARIHNPEDAEDEICSTCARSQHVYALDESCDLEHHHHHH”, “not failed”; in that of “STNLQEKGLVVSIVDTLMFDTGRAEVKPDFQKKLVEIGEILKTIDNYIRIEGHTDNTPISNSQYASNIELGSARSNNVEHLFIDVSKIPVTQMYTVSYADTRPVADNNSEAGKARNRRVDIVILNSKFNAVEQESSGK”, “failed”. In the case of “MVIPFARSVPLSPNTLTLLGFAVSVAAGVAFALGKPFEGGFLILFSGVFDILDGGVARAKGRITPFGGVLDSVCDRYSDGLMFLGIMAGAIYGRLSFAPFLGVEGWLWAGFALIGSFLVSYTRARAESAGCRKLSVGIAERTERMVILALGALSGFLGWALVLIAVFSHITMIQRVLRAKSILSSPSEPESQKP” it was “failed”; in that of “MTNVLWLQGGACSGNTMSFLNAEEPTVCDLIADFGIKVLWHPSLGLELGDNVQTLLWDCILGKIPLDILVFEGTVVNAPNGTGEWNRFADRPMKDWLNDLAQAASFVVAVGDCATWGGIPAMEPNPSESQGLQFLKRKEGGFLGKDFRAKSGLPVINIPGCPSHPDWITQILVAIATGRIGDIALDELNRPQTFFNTFTQTGCTRNVHFAYKATTAEFGQRKGCLFYDLGCRGPMTHSSCNRILWNRVSSKTRAGMPCLGCTEPEFPFFDLKPGTVFKTQTIMGVPKELPPGVSNKNYAVLTMVAKDTAPKWAEEDFFTV”, “failed”. In the case of “MKSYLVGGAVRDALLGQPAGDCDWVVVGADPAHMKSLGFKPVGRDFPVFLHPKTGEEFALARTERKNGHGYRGFIVNADPTVTLEQDLQRRDFTINAIARDQTNGTLIDPYGGVNDLEQRVLRHISPAFAEDPLRVLRAARFMARLAPLGFSIAPETLAMMRQMAANGELNSLIPERIWKELSRSLTYTQPAAFLHTLRTVNALEVVLPELNALYGVPQHADYHPEIDTGLHQELVSDIAAKLAPGDMLIGFAALCHDLGKALTPRATWPHHPMHEQRGMAPTQQLSERLKVPRNYQQLALIACREHLNVHRLSKLHDNTVYELLQRCDAFRRPERIAQLAIVCEADYRGRYGHEDANYPQGQHLCRLHAAALAINARDLNRQDLHGTQIGEALAQARIRAISSAGVYDGGTGTNF” it was “failed”; in that of “SPEYGMPSVTFGSVHPSDVLDMPVDPNEPTYCLCHQVSYGEMIGCDNPDCSIEWFHFASCGADNQPRGKWXFPRCSQE”, “not failed”. As to “INKLYAINANLEESELRFRSAFNSAAIGMAIVSLEGMWLKVNQSLCQIVGYSEEELLETNFQSITHPEDLELDLGYVRQLLEGDIRFYHMEKRYIHKNGSVIWILLSASLIRDLDNKPLYFISQIQNID”, the protein production entry was “failed”. As to “MKATTSLATSCRRLLLWGVLTLQCLFSTAQKRFTADVEQQAEKILSQMTLDEKLSYIGGINWMYTRPLERFGIPRLKMSDGPQGLGTHGPSTAYPCALMLAATWNEQLATEYGSALGKDCRARGVHVLLGPAVNIYRAPMCGRNFEYMGEDPYLTSRMATGYIKGVQGQGVMATIKHFIANNSDYDRDHISSDIDERTLNEIYFPSFRAAVQEAEVGAVMSSYNLLNGIYTTEHPWLLKDVLRQQWGFKGILMSDWGSTHHCIPAVKGGLDLEMPAGSKMQPEELKYYLRTGDITIETIDEKVRHILQTLLAFGFRETQQPDTHIPLKNPQCAQTALNVASEGLVLLKNTNQILPIRSGKVKTIAVVGKNAQGYVCGGGSGEVHPFQYVSVLDGIRKEAAERDIRVEYLDVYDYLPTIIFTDTERKQKGFRAQYFDNMNLEGTPKVEQTETKINYSWSGGTGLKEMPKEQFSVRWNGTICPQETDEYLFTLGGDDGYRLYIDGKLIADEWHEGAFRNSTYRCMLEAGKKYDLKIEYFQKGGGAAVNFIWKQKNASNNLFVEALNRNDLVVACIGFNSDTEGEGRDRTFELPEDEAQLLQNTLQSKRPVVGIVNAGGNVEMQSWEPSLKGLLWAWYGGQEAGTAIARTLFGELNPSGKLPITFEKRWEDNPTFHSYYDPDGDKHVEYAEGIFVGYRGYDKLKREVQYPFGYGLSYTRFKLSAPTVGTPKTDGSVTVTCKLTNTGRTAGAEVVQLYVSNKDTTVEHPEKELKGFRKVYLEPGETKSIEITVPAEAFSHYDTGSRRFVIDRGSHDILLGFSSRDIKAKMSVGISR”, the protein production result is reported as “failed”. On to “MAKGVRVGLKNIHFAKILTEDENGVTYDTPVKIGNAIEASITPNTNSETLYADDGPSEVESSLGETEVEIGIDQLSTTAQALLLGHTILSDGVLEKKETDIAPYGALLFESATTGGKSKLYALYKGRFQPQEESFATKGLEHHHHHH”, for which the protein production result is reported as “not failed”. In the case of “MNNIIVGMGEALWDVLPEGKKIGGAPANFAYHVSQFGFDSRVVSAVGNDELGDEIMEVFKEKQLKNQIERVDYPTGTVQVTLDDEGVPCYEIKEGVAWDNIPFTDELKRLALNTRAVCFGSLAQRNEVSRATINRFLDTMPDIDGQLKIFDINLRQDFYTKEVLRESFKRCNILKINDEELVTISRMFGYPGIDLQDKCWILLAKYNLKMLILTCGINGSYVFTPGVVSFQETPKVPVADTVGAGDSFTAAFCASILNGKSVPEAHKLAVEVSAYVCTQSGAMPELPVILKDRLL” it was “not failed”; in that of “MATPSGIVRFPGAGCVVEFMQGNRPQIAWVMEEQGGRLRLFLPNRRETKLAAARLLPWAGPRYDGERSRDDMVALLEEHRQRRDTREADIQPLELWEMVQGEVEQASVEWFAELLGETPGVDEVAAMGRALLGCKTHFKFHPPDFEVYDAAKVEARMVEMEAARVREALVEAGQAFIKVLWDVHCRRRTMPLPSSSEMPPAEVAERLATLLRTRMADPDDHDSDSVWKQVTKGLPDDAHMPLHLAAAWGIVPVHHNFWMDRAGYAPGDEWAIDHVDEIDALMKRVEALREPLVDGTFISIDSSTTRDIDDAFDISPSPEGGWILRLVLASPVTGWDFDGPLDRAVLRRATSIYLPERSHHMMPETLGTDAYSLLAGQDRPALLVTFDIAPDGSLRSTTPATGWVRLAANLTYTECEACLTGEGDAGRAAPHADRLALADALARVRQQLRVAAGAVIIERDDPKVTLEGEGCAVKVHVAPPDETPRAQLLVSEMMILANAAIASWGAERGITLLHRTQDVGIPREYAGVWNQPHDIARVVKALAPAHLEPVAKPHAGIAVPAYSPVTSPLRRYPDLVNEAQVIHYLTHGTPRWSREEVEAMLPLLGARLDAAGQVQRFRPRYWKLFYIRQQGDKAWHEAVVTEENDAFVTISLPEVQIFVRGRRSTFGDKVYPGQHFNVRLGKVHPLNNEIQIVDAMEG”, “failed”.

Values taken from a protein production outcome set (Wang et al. 2014).
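Further: failed if final PepcDB status was selected cloned or expressed and not failed if soluble or beyond.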
